Assay: label from the status in PepcDB records
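Also: failed if final PepcDB status was selected cloned or expressed and not failed if soluble or beyond.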

Row | Sequence | protein production
1 | MRNDTMLNDTPFQDDDSRWQAVVTRNKAADSCFIYAVKTTSIYCAPSCASRQPRRENVVFFATADEAQAAGFRPCKRCRQGMLSRQEQQAQQIARACRMIEQSDRPPTLAVLAQAVGMSAFHFHRVFKTTTGLTPKQYASAYRHRQLREHLADNGEVTAAIVAAGYDASGRFYAEAGTHLGMTPTAFQNRGKGMTIHFAIGRCSLGDVLVAESEKGICAILLGDDPEPLLNTLQEMFAHAHLVGGDAAFEQRMSQVVGFVDDPSIGLTLPLDIRGTAFQQRIWQALRAIPVGETLSYREVAERIGSPAAVRAVAGACAANRLAVAIPCHRVVRHDGALSGYRWGVERKRALLEKEQVEKKQIVHQPEESPP | failed
2 | MRNFFKKMVVLSVGCLTLPLWAQPHREGVQQKLQSLSVEQKIDLLCARYPGVPQEGLAKYDWWSECLHGVARAGKATVFPKPIGMGSTWDAELIHRIGIAIGDEARAKHHQDVREHGYSDRHYGLTFFSPTLNIARDPRWGRTTECFSEDPLLTSDMGVSFIKGMQGDDPYYLKTVATAKHFVANNEENRRLGGSAIVDEVSLREYYFPAFRDAVVRGYVKSIMGAYNALNGIPCCANSMLLTDVLRKEWGFEGVVISDGSAIDKLYTHHKYVPNLEEGAALALRAGCDMSLRDEYRPGLKKAYHKGLITEHDLNVAVARVLDLRARLGLDKGTDQGNPYKNTPYSVVECERHQQLALEAAEKSMILLKNEGVLPLKPDASKRKLNIALIGDAFKSVYYGDYSGMPEYNRTLLEAFTHDAGRLANLTWMGERSQEVLIPSHLLTQTADQAYDGILGFTARYYEGTKVGKEAALTRQDLTLDFKLAEDAALKQKEVRAASWTSTLKAPQSGRYMFYLEASGRGKLFINGKQMLSKYNGHRFKTSCEVVLKEGEEYKLKVDCEELNTQMPIRLTWTPPFKGTDDTPAKLAKRSDVAILFVRDDNSSEGRDRKNLNLSDAHIELIKEVCAANPKTILLLGGGSTLALKDIIEGPAALLNVWIAGQGEAQAISNILLGKTNPSGKTAVTFCADESELPALDDYDITHGRSYQYFKGKELFPFGFGLSYTNYQYGKPKMKHRKLQQGDKVEVSAEIRNTGKYAGEEVVQCYLSSPTWQKQGLKQKLVGYQRVSLKPGQAKTVKFCIQEEQLKRWNKDKDEWGLNGNQYNLSVVPCSNQQNAVSFTYR | failed
3 | MRNKLLFLALPLLFGLQASAQHTQAFQDTTLTDEQRVEHLLSILTLDEKINLLSTDLGVPRLNIPRCGHYEGLHGLTLGGPAMWGGRQRTEDGKVVPTDCPTTIFPQSYGLGSTWDTDLVQKVAEQAAEEARYYMQTTGNKRHALVMRAPNADLARDPRWGRTEESFGEDAFLTAQLTIASVRGLQGNHPRYWKTASLMKHFLANSNEDGRDSTSSDFDTRLFHEYYAYPFYKGITEGGSRAFMAAYNSWNGIPMSIHPCLEEITRKQWGNNGIICTDGGALKLLIEAHKSFPSFAEGAAAVVKATTGQFLDAYVPYVKEALEKGLLTEVDIDKAIRGNIFVALKLGLLDGDNSRNPYLSIGKNSTETPPFMTAEARRLAREVTAKSVVLLKNKKLLPLDAGKLRKIAVIGPYSDKIVQDWYSGTPPYETTILSGIRNAVKEGTEIIHAEDNRMGQAEKAAAAADVAIVCVGNHPYGTRADWKFSPVPSDGREAVDRKSLMLPDEDLVKLVLKANPNTILVLVSSFPYTINWSQEHVPAIVHITHCSQEQGNGLADVLFGKVNPAGRTVQTWVKDITDLPDIMDYDIRNGRTYMYHQGPVLYPFGYGLSYSDFTYEKIESVKQDKKNIRVTVSVKNTSGRDGEEVVQLYASYPDSKVERPSKQLRAFRRIPIKAGETRKVTLTVPKEELGYWNEGKQMFVVEPGTVKLLIGASSEDIRLEGKIRL | failed
4 | MRNLIISAALVAASLFGMSAQAAEPIESGKQYVELTSAVPVAVPGKIEVIELFWYGCPHCYAFEPTINPWVEKLPSDVNFVRIPAMFGGPWDAHGQLFITLDTMGVEHKVHAAVFEAIQKGGKRLTDKNDMADFVATQGVNKDDFLKTFDSFAVKGKIAQYKELAKKYEVTGVPTMIVNGKYRFDLGSAGGPEKTLQVADQLIDKERAAAKAAK | failed
5 | MRNSCYTSSYRQPVSLVVEWVLIGGLAMQDKLHEIRVFENFQEELFETGHVIVTTEVVEKSLNYFGNAHGGYLFTLCDQVAGLVALSTGDYAVTLQSNINYLKAGHLSDQLKIEGLCVHNGKTTKLVEVLITNQEEKILTRATFTMYVTGSISE | failed
6 | MRPAAARVLLGAFAFAVVADLASQALGSDTGHLLAKPLLMPLLAAYAAVRGGPRLLVVALLLGWAGDVLLLSDADPAFLAGMSSFAAGHVCYLVLFARHGRTRARGALLAGGYGLVLVTTVALLWPGLPAGLRVPVVGYSLLLTAMAYGATRLGPVAGLGGALFLLSDTLIATGVADWPQLPRPDFWIMLTYAAGQYLLVRGVTDTLGAPTAPAAAYGEVRSTTP | failed
